Results: FireProtDB (doi:10.1021/bi00010a002)

Details: Saccharomyces cerevisiae (strain ATCC 204508 / S288c), pH 2.1, Thermal, CD, Na2SO4-H2SO4 0.33 M
[1] = reversible: yes (>80%), structure 1YCC
[2] = reversible: yes (>70%), structure 1YCC

Chain of Cytochrome c isoform 1 A13L, P00044 (P00044 whole entry A13L, canonical isoform): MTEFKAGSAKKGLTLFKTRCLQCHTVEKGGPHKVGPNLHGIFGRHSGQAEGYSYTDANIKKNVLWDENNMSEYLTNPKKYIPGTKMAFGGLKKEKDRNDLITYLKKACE
Chain of Cytochrome c isoform 1 Y103F, P00044 (P00044 whole entry Y103F, canonical isoform): as the sequence (P00044 whole entry A13L, canonical isoform) above, with L13A, Y103F counted along it
Chain of Cytochrome c isoform 1 A13Y, P00044 (P00044 whole entry A13Y, canonical isoform): as the sequence (P00044 whole entry A13L, canonical isoform) above, with L13Y counted along it
Chain of Cytochrome c isoform 1 F16Y, P00044 (P00044 whole entry F16Y, canonical isoform): as the sequence (P00044 whole entry A13L, canonical isoform) above, with L13A, F16Y counted along it
Chain of Cytochrome c isoform 1 L100I, P00044 (P00044 whole entry L100I, canonical isoform): as the sequence (P00044 whole entry A13L, canonical isoform) above, with L13A, L100I counted along it
Chain of Cytochrome c isoform 1 F16W, P00044 (P00044 whole entry F16W, canonical isoform): as the sequence (P00044 whole entry A13L, canonical isoform) above, with L13A, F16W counted along it
Chain of Cytochrome c isoform 1 wild type, P00044 (P00044 whole entry, canonical isoform): as the sequence (P00044 whole entry A13L, canonical isoform) above, with L13A counted along it

Substance	Tm [1] [°C]	change of melting temperature, mutant - wild type (higher = more stable) [1] [°C]	unfolding enthalpy (van 't Hoff) [1] [kcal/mol]	Tm [2] [°C]	change of melting temperature, mutant - wild type (higher = more stable) [2] [°C]	unfolding enthalpy (van 't Hoff) [2] [kcal/mol]	Tm (reversible: yes (>90%)) [°C]	unfolding enthalpy (van 't Hoff) (reversible: yes (>90%)) [kcal/mol]
Cytochrome c isoform 1 A13L, P00044	33.7	-1.7	37.9					
Cytochrome c isoform 1 A13Y, P00044	36	0.6	41.5					
Cytochrome c isoform 1 F16W, P00044	23.1	-12.3	28.9					
Cytochrome c isoform 1 F16Y, P00044				28.4	-7	40.6		
Cytochrome c isoform 1 L100I, P00044	33.7	-1.7	35.8					
Cytochrome c isoform 1 Y103F, P00044	33.3	-2.1	33					
Cytochrome c isoform 1 wild type, P00044							35.4	38.1
